Source: US20140186294A1, “PHAGOCYTIC ACTIVITY AS A MARKER OF SYNUCLEINOPATHIC DISEASE” (ELAN PHARMACEUTICALS, INC., priority 2010, published 2014)
Entries after “also recorded” stand apart in the source; their conditions may differ.

Legend:
[1] = tested on: synuclein overexpressing microglia; assay: Bead phagocytosis (phagocytic index) of IL-4 treated microglia from synuclein genomic lines 3, 26, 422; format: cell-based, mouse; details: IL-4 24 hours, then beads 90 minutes
Experimental: FIG. 13: Wild type or synuclein overexpressing microglia isolated from line 3, 26, or 422 littermate pups cells were treated for 24 hours with IL-4 and the fed beads for 90 minutes and phagocytic index determined.
To investigate the role of endogenous synuclein on microglia function, we utilized a transgenic mouse model in which wild type or the E46K mutated form of human synuclein was overexpressed from a human bacterial artificial chromosome (bac). The bac construct contained the synuclein promoter and upstream sequences (45 kbp), as well as downstream 3′ sequences ([…]). Three animal lines of interest were identified; line 422 expresses wild type synuclein and two additional lines, line 26 and line 3, express the mutant E46K form. Altered microglia function associated with over expression of human synuclein was assessed in cells isolated from line 26 P1-P3 pups due in part to the high synuclein expression observed in this line. […] Significant overexpression of human synuclein in the murine microglia allowed us to assess the consequence of elevated synuclein levels on microglia function. […] Although the requirement for receptor engagement differs, both targets require activation of intracellular signaling, actin rearrangement, and mobilization of membrane to the phagocytic cup. […]

synuclein mRNA [2] = assay: Synuclein transcript levels in IL-4 treated human microglia (microarray, qPCR); format: cell-based; details: IL-4 24 hours; microglia from three human donors
Experimental: (§1) FIG. 12: Microarray analysis of microglia isolated from three human donors were stimulated with IL-4 for 24 hours and microarray experiment performed and results were confirmed by qPCR. qPCR was also performed on microglia isolated from IL-4 treated line 26/synuclein null pups.
(§2) Human microglia were treated with IL-4 and synuclein transcript levels were measured by microarray and qPCR. Following IL-4 treatment synuclein levels were decreased by 50% in the three donors tested (FIG. 12). […] Microglia from synuclein genomic mice were treated with IL-4 for 24 hours, and while synuclein mRNA levels were decreased, protein levels were unaffected. Synuclein is turned over slowly, therefore 24 hours maybe too soon to see affects. To assess this microglia were stimulated with IL-4 for 48 hr at which time a 50% reduction in synuclein protein levels was observed. […] This may point to a direct effect of IL-4 signaling on the synuclein promoter.

synuclein mRNA [3] = assay: Synuclein mRNA (qPCR) in IL-4 treated line 26/synuclein null microglia; format: cell-based, mouse
Experimental: as §1, §2

synuclein protein = assay: Synuclein protein levels in IL-4 treated microglia from synuclein genomic mice; format: cell-based, mouse
Experimental: as §2

SNARE complex = SNARE complex components in lysates of IL-4 treated microglia; format: cell-based, mouse; details: IL-4 24 hr; wild type and synuclein OE cells
Experimental: To determine if IL-4 worked in part by altering SNARE or vesicle movement microglia from synuclein genomic mice were treated with IL-4 for 24 hr and lysates were probed for components of the SNARE complex. […] After addition of beads we saw induction of SNARE complexes and these were enhanced following IL-4 treatment.

microglial cells = assay: Phagocytic activity screening assay, microglial cells; format: cell-based
Experimental: (§3) The components of a screening assay include cells with phagocytic activity, a test agent being screened and an entity that can be phagocytosed. Such an entity can be inert particles, such as latex beads, preferably of size 4-10 microns. The entity can also be apoptotic cells, such as Jurkat cells). Cells and inert entities are phagocytosed by different mechanisms, the former being receptor dependent. Usually the cells are contacted with the test agent first and incubated for a period (e.g., 1-48 hr) before adding the entity to be phagocytosis. Phagocytosis can be followed by light microscopy or flow cytometry among other methods detecting uptake of the entity being phagocytosed into the phagocytic cell. Methods for detection of phagocytosis can include any fluorescent based platform (e.g., flow cytometry, microscopy, array scan, or a Tr-fret, fluorescent plate reader) enzymatic, or colorimetric readout.
(§4) The screening assay can be performed on different types of phagocytic cells in parallel or sequentially. Some agents stimulate phagocytic activity in all or multiple cell types. Other agents may stimulate phagocytic activity in some cells type but not all.

peripheral macrophages = assay: Phagocytic activity screening assay, peripheral macrophages; format: cell-based
Experimental: as §3, §4

H4 neuronal cells = assay: Phagocytic activity screening assay, H4 neuronal cells; format: cell-based, human; details: H4 neuronal cells (lack an IL-4 receptor)
Source text: The screening and diagnostic assays employ cells with phagocytic activity, sometimes referred to as phagocytic cells. The cells can be human, or other mammalian, particular rodent or mouse. The cells can be obtained from a subject with synucleinopathic disease (usually a human) or a transgenic animal model of disease (e.g., a mouse). The cells can also be a cell line transformed to express an alpha synuclein gene. The cells include microglial cells or peripheral macrophages or polymorphonuclear cells or other phagocytic cells. Microglia can be obtained by biopsy or differentiating or trans-differentiation of embryonic stems cells, bone marrow, induced pluripotent or other stem or pluripotent cell sources from a subject or transgenic animal model. Such phagocytic cells have higher intracellular levels of alpha synuclein that control cells from an undiseased individual. […]
The components of a screening assay include cells with phagocytic activity, a test agent being screened and an entity that can be phagocytosed. […] Methods for detection of phagocytosis can include any fluorescent based platform (e.g., flow cytometry, microscopy, array scan, or a Tr-fret, fluorescent plate reader) enzymatic, or colorimetric readout. […]

B1: IL-4: interleukin IL-4 (Swiss Prot P05112), cytokine used to treat microglia (protein, UniProt P05112 25-153, looked up)
Interleukin-4: HKCDITLQEIIKTLNSLTEQKTLCTELTVTDIFAASKNTTEKETFCRAATVLRQFYSHHEKDTRCLGATAQQFHRHKQLIRFLKRLDRNLWGLAGLNSCPVKEANQSTLENFLERLKTIMREKYSKCSS
- phagocytosis (phagocytic index) [1]: rescue the phagocytic defect
- phagocytosis (phagocytic index) ([1]; listed as 11-4): restored phagocytosis
- reduction in synuclein mRNA levels (synuclein mRNA [2]): 50%
- reduction in synuclein mRNA levels (synuclein mRNA [3]; IL-4 treated line 26/synuclein null pup microglia, qPCR): 50%
- synuclein mRNA levels (synuclein mRNA [3]; line 26/synuclein null genomic microglia, IL-4): reduced synuclein mRNA levels
- synuclein protein levels (synuclein protein; IL-4 for 24 hours): unaffected; also recorded: did not decrease synuclein protein
- reduction in synuclein protein levels (synuclein protein; IL-4 for 48 hr): 50%
- SNARE complex components in lysates (SNARE complex): increased monomer SNAP23 Syntaxin4, and SNAP23 snare complex
- stimulating phagocytic activity (microglial cells): effective
- stimulating phagocytic activity (peripheral macrophages): effective
- stimulating phagocytic activity (H4 neuronal cells): not in H4 neuronal cells
